This test concerns the target myeloperoxidase (human (endogenous in neutrophils)). In words: SEC; unactivated azurophilic granules permeabilized with 0.1% NP-40, Superdex 200 GL, 20 mM HEPES pH 7.4, 100 mM NaCl, 0.5 U/ml heparin; fractions probed for NE and MPO; proteins of the complex detected by mass spectrometry.

myeloperoxidase (human (endogenous in neutrophils)), sequence (P05164 165-745): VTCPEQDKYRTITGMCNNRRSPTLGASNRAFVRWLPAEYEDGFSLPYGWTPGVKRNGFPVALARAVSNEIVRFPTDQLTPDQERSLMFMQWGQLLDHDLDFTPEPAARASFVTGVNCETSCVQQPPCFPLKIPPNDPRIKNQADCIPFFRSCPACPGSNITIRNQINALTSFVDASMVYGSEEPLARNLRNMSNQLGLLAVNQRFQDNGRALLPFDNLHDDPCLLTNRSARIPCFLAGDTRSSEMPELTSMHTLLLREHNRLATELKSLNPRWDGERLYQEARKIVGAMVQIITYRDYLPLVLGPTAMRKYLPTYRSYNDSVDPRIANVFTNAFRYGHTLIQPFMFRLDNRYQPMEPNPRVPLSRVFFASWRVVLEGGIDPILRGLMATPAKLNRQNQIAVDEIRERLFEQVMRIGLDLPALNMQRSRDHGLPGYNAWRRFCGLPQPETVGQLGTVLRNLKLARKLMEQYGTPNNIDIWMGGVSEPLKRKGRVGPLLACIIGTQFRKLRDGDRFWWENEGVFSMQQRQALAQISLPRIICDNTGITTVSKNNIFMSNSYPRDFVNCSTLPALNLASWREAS

Usually stoichiometry N stands for a count of units in the complex or per binding partner. On to “neutrophil elastase (from UniProt P08246 30-267) (enzyme)”, for which the stoichiometry N was 2 NE per MPO.

The record behind these values is paper PMC4471680.
